# Measurements from patent publication US20090253630A1.
# Target: PTHR-emGFP expressed in transfected HEK 293 cells
# Experiment: cell-based or functional assay
substance,measurement,value
PTH(1-38) (from UniProt P01270 32-69) (peptide),"PTHR1 internalization at 20 min, 100 nM compound, percent of vehicle only control (baseline=100%) (% of vehicle only control)",166
same,"PTHR1 internalization at 40 min, 100 nM compound, percent of vehicle only control (baseline=100%) (% of vehicle only control)",177
same,"PTHR1 internalization at 60 min, 100 nM compound, percent of vehicle only control (baseline=100%) (% of vehicle only control)",224
same,"PTHR1 internalization at 180 min, 100 nM compound, percent of vehicle only control (baseline=100%) (% of vehicle only control)",175
